Usually Kd stands for the equilibrium constant for the complex coming apart.

This passage reports binding result and Kd results from PMC3063405.

Data set [1] addresses T1, PUM2-HD (Pumilio-homology domain) (Homo sapiens, UniProt Q8TB72 706-1056). The experiment in a line: crystal structure.
Data set [2] has as its target T2, PUM1-HD (Pumilio-homology domain) (Homo sapiens, UniProt Q14671 828-1176). The data set is described as follows: crystal structure.
Data set [3] deals with T2, PUM1-HD (Pumilio-homology domain). The data set is described as follows: EMSA.
The target in data set [4] is T1, PUM2-HD (Pumilio-homology domain). The data set is described as follows: EMSA.

T2 sequence (Q14671 828-1176): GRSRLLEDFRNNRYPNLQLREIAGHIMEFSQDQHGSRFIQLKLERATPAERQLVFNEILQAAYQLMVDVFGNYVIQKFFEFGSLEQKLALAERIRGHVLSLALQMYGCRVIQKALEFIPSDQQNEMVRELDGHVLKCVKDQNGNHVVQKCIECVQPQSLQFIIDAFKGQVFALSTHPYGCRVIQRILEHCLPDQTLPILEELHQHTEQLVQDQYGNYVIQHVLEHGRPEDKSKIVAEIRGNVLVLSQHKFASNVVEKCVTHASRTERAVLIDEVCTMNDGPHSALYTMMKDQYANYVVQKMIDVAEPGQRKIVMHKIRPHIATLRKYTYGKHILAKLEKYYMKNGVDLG
T1 sequence (Q8TB72 706-1056): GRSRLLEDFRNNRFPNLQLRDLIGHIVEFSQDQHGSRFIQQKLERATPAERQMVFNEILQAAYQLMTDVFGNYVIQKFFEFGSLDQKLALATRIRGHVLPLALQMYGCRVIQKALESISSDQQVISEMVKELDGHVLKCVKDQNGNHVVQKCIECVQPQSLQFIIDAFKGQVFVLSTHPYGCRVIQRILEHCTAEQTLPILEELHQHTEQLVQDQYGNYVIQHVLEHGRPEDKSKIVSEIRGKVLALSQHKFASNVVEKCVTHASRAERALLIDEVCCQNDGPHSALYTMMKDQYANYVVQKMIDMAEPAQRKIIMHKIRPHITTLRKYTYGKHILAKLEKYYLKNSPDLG

As for UGUACAUC (ssRNA) [erk2 NRE], the binding result in data set [1] and in data set [2] was “binds” throughout.
With UGUAAAUA (ssRNA) [p38α NREa], the equilibrium dissociation constant (Kd) in data set [3] is 910 ± 80 pM; in data set [4] it was 170 ± 20 pM.
As for UGUAUAUA (ssRNA) [hb NRE1], the Kd in data set [3] came out at 400 ± 10 pM; in data set [4], 360 ± 20 pM.
Taken in the same sequence, the figures for UGUACAUA (ssRNA) [hb NRE2] were 1010 ± 50 pM and 70 ± 10 pM.
Taken in the same sequence, the figures for UGUAGAUA (ssRNA) [p38α NREb] were 630 ± 10 pM and 80 ± 10 pM.
